In patent publication US20130005666A1:

Target: Neh2-luciferase fusion protein (human; firefly)

FLAG-labeled Keap1 expressed from an adenovirus
background luminescence of the Neh2-luc reporter cell line (fold decrease): 3.5
